Values quoted from earlier work in US8623606B2, “Screening method for GPCR ligands” (Max-Planck-Gesellschaft zur Forderung der wissenschaften …, priority 2006, dated 2014).
Read-outs that look alike come from different tables or passages of the source.

Assays:
CRF1 receptor [1] = target: T1, CRF1 receptor (Homo sapiens, UniProt P34998)
T1 sequence (P34998 24-415): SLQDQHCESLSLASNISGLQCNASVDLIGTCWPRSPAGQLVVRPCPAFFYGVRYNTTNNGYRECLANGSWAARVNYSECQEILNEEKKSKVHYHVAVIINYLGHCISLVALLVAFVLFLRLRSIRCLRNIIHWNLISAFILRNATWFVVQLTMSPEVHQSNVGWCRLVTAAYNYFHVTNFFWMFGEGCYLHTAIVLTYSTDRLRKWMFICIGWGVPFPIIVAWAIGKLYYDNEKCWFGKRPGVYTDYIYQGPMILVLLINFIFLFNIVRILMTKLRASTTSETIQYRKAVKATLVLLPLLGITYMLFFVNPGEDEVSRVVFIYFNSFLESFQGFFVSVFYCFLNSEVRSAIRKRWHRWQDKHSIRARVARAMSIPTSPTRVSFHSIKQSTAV

CRF1 receptor [2] = target: T1, CRF1 receptor; remark: listed apart in the source
CRF R1 = conditions: FIG. 2A legend

| Substance | binding to the CRF1 receptor (in words) (CRF1 receptor [1]; FIG. 2B legend) | Kd (CRF1 receptor [1]; as reported in Yamada et al., read-out: binding constant to the N-terminal domain) | Kd (CRF1 receptor [1]; literature value, read-out: affinity of binding to the CRF1 receptor) | influence on the J-domain signaling (CRF1 receptor [2]) | CRF R1 activation potency (testosterone production) (CRF R1) |
| --- | --- | --- | --- | --- | --- |
| Ac-E*AEK*NRLXDII-CONH2 [12 amino acid analog of astressin] | binds tightly | 5 nM | 5.5 nM | devoid of any detectable influence |  |
| Ucn1-19: N-terminal activation domain from the CRF R1 agonist rat urocortin (DDPPLSIDLTFHLLRTLLEIE; listed as Homo sapiens) |  |  |  |  | Neither of the isolated domains is active alone |
| consensus peptide derived from the C-terminus of CRF R1 antagonists: consensus peptide derived from the C-terminus of CRF R1 antagonists (NRKLLDEV; listed as Homo sapiens) |  |  |  |  | Neither of the isolated domains is active alone |
